{
  "source": "patent US20250346646A1",
  "about": "“COMPOUNDS USEFUL TO TREAT METABOLIC DISORDERS” (President and Fellows of Harvard College, priority 2016, published 2025)",
  "key": {"Mouse aP2": {"target": "T1, Mouse aP2 (Mus musculus, UniProt P04117)", "T1 construct": "10 His-tag (N, cleaved yes); TEV protease site (N, cleaved yes); made in house; host or cells: E. coli BL21DE3", "T1 sequence (P04117 1-132)": "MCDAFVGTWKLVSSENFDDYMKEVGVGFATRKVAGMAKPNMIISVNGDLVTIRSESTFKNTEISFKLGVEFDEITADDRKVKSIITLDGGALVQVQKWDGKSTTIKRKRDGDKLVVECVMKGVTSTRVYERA", "assay": "Biacore antibody cross-blocking vs H3", "assay_type": "binding", "experimental": "FIG. 10B is a table of antibody crossblocking of H3 vs. CA33, CA13, CA15, and CA23 as determined by Biacore analysis. ++=complete blocking; +=partial blocking; −=no crossblocking.\nThe assay was performed by injecting mouse aP2 in the presence or absence of mouse anti-aP2 IgG over captured rabbit anti-aP2 IgG. Biomolecular interaction analysis was performed using a Biacore T200 (GE Healthcare Bio-Sciences AB). Anti-aP2 rabbit IgG transient supernatants were captured on the immobilized anti-rabbit Fc surfaces (one supernatant per flowcell) using a flow rate of 10 μl/min and a 60 s injection to give response levels above 200RU. Then mouse aP2 at 100 nM, 0 nM or mouse aP2 at 100 nM plus mouse anti-aP2 IgG at 500 nM were passed over for 120 s followed by 120 s dissociation. The surfaces were regenerated with 2×60 s 40 mM HCl and 1×30 s 5 mM NaOH.\nIn further analysis, epitope identification based on hydrogen-deuterium exchange mass spectrometry experiments, for example, as described by Pandit et al. (2012) J. Mol. Recognit. […] Co-crystallization of the Fab fragments of CA33 and H3 with aP2 (FIG. 10D) was then conducted. […] Despite the partial blocking of H3 by CA33, we observed that there is in fact no direct overlap of their epitopes. Instead, the significant movement of the region around aP2 Phe58 may partially block binding of one antibody by the other in the competition experiments. […]"}, "ob/ob mice": {"system": "ob/ob mice", "assay": "CA33 treatment of leptin-deficient ob/ob mice", "assay_type": "in vivo, mouse", "experimental": "FIG. 11C is a bar graph showing fasting blood glucose levels (mg/dl) in ob/ob mice before (open bars) and after (solid bars) 3 weeks of CA33 antibody or vehicle treatment (n=10 mice per group). **p<0.01.\nThe test was performed after 2 weeks of vehicle (triangles) or CA33 antibody treatment (squares) in aP2−/− mice. *p<0.05.\n(§1) The test was performed after 3 weeks of vehicle (triangles) or CA33 antibody treatment (squares) in aP2−/− mice.\nas §1\nAnimal care and experimental procedures were performed with approval from animal care committees of Harvard University. Male mice (leptin-deficient (ob/ob) and diet induced obese (DIO) mice with C57BL/6J background) were purchased from The Jackson Laboratory (Bar Harbor, ME) and kept on a 12-hour light/dark cycle. DIO mice with C57BL/6J background were maintained on high-fat diet (60% kcal fat, Research Diets, Inc., D12492i) for 12 to 15 weeks before starting treatment except in clamp studies, for which they were on HFD for 20 weeks. Leptin-deficient (ob/ob) mice were maintained on regular chow diet (RD, PicoLab 5058 Lab Diet). Animals used were 18 to 31 weeks of age for dietary models and 9 to 12 weeks of age for the ob/ob model. In all experiments, at least 7 mice in each group were used, unless otherwise stated in the text. The mice were treated with 150 μl PBS (vehicle) or 1.5 mg/mouse (˜33 mg/kg) anti-aP2 monoclonal antibody in 150 μl PBS by twice weekly subcutaneous injections for 3 to 5 weeks. Before and after the treatment, blood samples were collected from the tail after 6 hours of daytime food withdrawal. Body weights were measured weekly in the fed state. Blood glucose levels were measured weekly after 6 hours of food withdrawal or after 16 hours overnight fast. After 2 weeks of treatment, glucose tolerance tests were performed by intraperitoneal glucose injections (0.75 g/kg for DIO, 0.5 g/kg for ob/ob mice). After 3 weeks of treatment, insulin tolerance tests were performed in DIO mice by intraperitoneal insulin injections (0.75 IU/kg). After 5 weeks of treatment, hyperinsulinemic-euglycemic clamp experiments were performed in DIO mice as previously described (Furuhashi et al., (2007) Nature 447, 959-965; Maeda et al., (2005) Cell metabolism 1, 107-119).\nFinally, the effect of CA33 in a second model of severe genetic obesity and insulin resistance using leptin-deficient ob/ob mice was examined. Strikingly, hyperglycemia in the ob/ob mice was normalized in CA33-treated mice compared to controls (FIG. 11C)."}},
  "data": [
    {"molecule": "CA33: low-affinity anti-aP2 monoclonal antibody, rabbit-mouse hybrid, produced and purified by UCB; VL Seq. ID 28, VH Seq. ID 41 (antibody, V domains shown, Rabbit Ab 909 VH region; Rabbit Ab 909 VL-region) VH: QSVEESGGRLVTPGTPLTLTCTVSGFSLSTYYMSWVRQAPGKGLEWIGIIYPSGSTYCASWAKGRFTISKASTTVDLKITSPTTEDTATYFCARPDNDGTSGYLSGFGLWGQGTLVTVSS VL: DVVMTQTPASVSEPVGGTVTIKCQASEDISRYLVWYQQKPGQPPKRLIYKASTLASGVPSRFKGSGSGTDFTLTISDLECDDAATYYCQCTYGTYAGSFFYSFGGGTEVVVE", "values": [
      {"measurement": "Blocking of H3 binding to aP2", "setting": "Mouse aP2", "result": "partially blocked"},
      {"measurement": "Insulin levels", "setting": "ob/ob mice; ob/ob mice", "result": "lower insulin levels"},
      {"measurement": "Glucagon response", "setting": "ob/ob mice; ob/ob mice after 3 weeks of treatment", "result": "blunts the glucagon response"},
      {"measurement": "Hyperglycemia (fasting blood glucose)", "setting": "ob/ob mice; ob/ob mice, 3 weeks of treatment, vs controls", "result": "normalized"},
      {"measurement": "Glucose tolerance (GTT)", "setting": "ob/ob mice; ob/ob mice, after 2 weeks, vs vehicle", "result": "significantly improved glucose tolerance"}
    ]}
  ]
}
